In US20200362047A1 (CRESCENDO BIOLOGICS, published 2020):
Residue numbers refer to the chain shown, from its start.

Columns and labels:
[1] = target: T1, human CD137-human Fc chimeric protein (Acro Biosystems cat no. 41B-H5258) (human, UniProt Q07011 24-186); assay: HTRF binding assay
T1 construct: Bought protein; The Octet Protein G and Biacore experiments name no catalogue number; also called human CD137Fc recombinant protein; human CD137-Fc recombinant protein; not shown: human IgG1 Fc tag
Experimental: (§1) Binding to human CD137Fc recombinant protein (Acro Biosystems 41B-H5258), rhesus CD137Fc recombinant protein (Sino Biologicals cat no. 90847-K02H) and mouse CD137Fc protein (Acro Biosystems 41B-M5258) was measured using an HTRF Binding assay format. All reagents and serially diluted VH were prepared in assay buffer containing PBS, 0.1% BSA and 0.4M Potassium Fluoride. Samples or assay buffer (non-specific binding) were incubated with 0.5 nM human, rhesus or mouse CD137, 1 nM Anti human-Fc Cryptate PAb (Cisbio cat. no. 61HFCKLB) and 20 nM anti His-D2 (CisBio cat no 61HISDLA) in black 384-shallow well assay plates for a minimum of 3 hours at room temperature. Time-resolved fluorescent emission at 620 nm and 665 nm was measured following excitation at 337 nm on the BMG PHERAstar plate reader. The HTRF ratio were calculated ((665 nm emission/620 nm emission)*10000) and the data corrected for (non-specific binding) to give the specific binding signal. VH bound to human and rhesus CD137 but not to mouse CD137 protein.

[2] = target: T2, rhesus CD137Fc recombinant protein (Sino Biologicals cat no. 90847-K02H) (rhesus; human, UniProt H9Z8K9 24-186); assay: HTRF binding assay
T2 construct: Bought protein; also called rhesus CD137-human IgG1 Fc tagged protein; not shown: human IgG1 Fc tag
T2 sequence: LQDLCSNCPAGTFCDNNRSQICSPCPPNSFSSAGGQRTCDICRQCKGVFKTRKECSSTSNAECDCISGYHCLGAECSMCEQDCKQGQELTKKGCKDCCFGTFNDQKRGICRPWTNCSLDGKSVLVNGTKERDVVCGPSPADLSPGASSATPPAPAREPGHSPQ
Experimental: as §1

[3] = target: T3, mouse CD137Fc protein (Acro Biosystems 41B-M5258) (mouse, UniProt P20334 24-187); assay: HTRF binding assay
T3 construct: Bought protein; also called mouse CD137 protein; not shown: Fc tag, detected with anti human-Fc
T3 sequence (looked up): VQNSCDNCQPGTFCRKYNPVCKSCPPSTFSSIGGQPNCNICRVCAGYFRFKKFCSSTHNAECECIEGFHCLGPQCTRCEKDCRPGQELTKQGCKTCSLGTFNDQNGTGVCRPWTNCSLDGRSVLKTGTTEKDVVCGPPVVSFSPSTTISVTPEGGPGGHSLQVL
Experimental: as §1

[4] = target: T1, human CD137-human Fc chimeric protein …; assay: BLI (Octet RED384), CD137-Fc on Protein G sensors, 1:1 model
Experimental: Binding kinetics of purified VH, bivalent VH and trivalent VH molecules were measured on a ForteBio Octet RED 384 instrument. CD137-Fc tagged protein was diluted to 3 μg/ml in kinetics buffer (0.1% BSA, 0.02% Tween, 1×PBS) and coupled to Protein G biosensors (ForteBio cat no. 18-5082) via the Fc tag. VH were serially diluted (typically 1:2 dilution series starting with 50 nM, VH at the highest concentration) and binding to the CD137-Fc-coupled Protein G biosensors measured. Binding kinetics were determined from the (blank subtracted) sensor gram trace using 1:1 binding models and ForteBio Octet Data Analysis 9.0 software. Example kinetic and binding affinity data obtained is shown Table 10 (monovalent VH) and FIG. 1 (bivalent and trivalent molecules).

[5] = target: T1, human CD137-human Fc chimeric protein …; assay: BLI (Octet RED384), CD137-Fc amine-coupled to AR2G sensors, 1:1 model
Experimental: The kinetics of monovalent and bispecific Humabody VH were determined on a ForteBio Octet RED 384 instrument. To study the interaction with the antigens, CD137-Fc tag protein (Acro Biosystems cat no. 41B-H5258) or PSMA-his (R&D Systems cat no. 4234-ZN) was immobilised onto AR2G biosensors (ForteBio cat no. 18-5082) by amine coupling. Monovalent VH and bispecific molecules were serially diluted (typically 1:2 dilution series starting between 12-25 nM, at the highest concentration) in kinetics buffer (0.1% BSA, 0.02% Tween, 1×PBS) and binding to the immobilised proteins was studied during the association and dissociation phases. PSMA binding was measured using 180 seconds association and 600 seconds dissociation phases. CD137 binding was measured 180 seconds association and 600 seconds dissociation phases. Reference subtracted data were fitted to a 1:1 binding model using the ForteBio Octet Data Analysis software.

B1: Humabody VH 1.11 (VHH)
VH: EVQLVESGGGLVQPGGSLRLSCEASGFTFSDYWMNWARQAPGKGLEWVANIKEDGSEKYYVDSVEGRFTISRDNAKNSTYLQMNSLRAEDTAVYYCARGGAGYSMSHYGMDVWGQGTTVTVSSHHHHHH
notes: human single VH domain
B1 was tested, and the EC50 [1] was 0.58 nM, the EC50 [2] was 6.8 nM and the binding result [3] was “no binding”. For the same binder, the Kd [4] was 2.5 nM, the koff [4] was 0.00148 s⁻¹ and the kon [4] was 596000 M⁻¹ s⁻¹.

B2: Humabody VH 1.78 (VHH)
VH: QVQLVESGGGLVQPGGSLRLSCAATGFTLSNYWMNWVRQAPGKGLEWVANINQDGSERYYVDSVKGRFTISRDNAKNSLYLQMSSLRAEDTAVYFCARGGEGYGVDHYGLDVSGQGTTVTVSSHHHHHH
notes: human single VH domain
For B2, the EC50 [1] was 0.21 nM, the EC50 [2] was 0.14 nM and the binding result [3] was “no binding”. For the same binder, the Kd [4] was 0.72 nM, the koff [4] was 0.000219 s⁻¹ and the kon [4] was 304000 M⁻¹ s⁻¹.

B3: Humabody VH 1.1 (VHH)
VH: EVQLVESGGGLVQPGGSLRLSCAASGFTFSSHWMTWFRQAPGKGLEWVAHIKEDGSEKYYEDSVEGRFTVSRDNAKNSVYLQMNSLRAEDTAVYYCARGGDGYSDSHFGVDVWGQGTTVTVSSHHHHHH
notes: human single VH domain; also called single domain antibody 1.1
With B3 the EC50 [1] was 0.26 nM, the EC50 [2] was 1.1 nM and the binding result [3] was “no binding”. For the same binder, the Kd [4] was 0.34 nM, the koff [4] was 0.00034 s⁻¹ and the kon [4] was 989000 M⁻¹ s⁻¹. It also gave a Kd [5] of 0.52 nM, a koff [5] of 0.00036 s⁻¹ and a kon [5] of 710000 M⁻¹ s⁻¹.

B4: Humabody VH 1.18 (VHH)
VH: EVQLVESGGGLVQPGGSLRLSCAASGFTFSTHWMNWARQAPGKELEWVANINQDGSEKYYVDSVEGRFTISRDNANNSLYLQMNSLRAEDTAVYYCARGGVGYGDSHFGMDVWGLGTTVTVSSHHHHHH
notes: human single VH domain
For B4, the EC50 [1] was 0.45 nM, the EC50 [2] was 5.1 nM and the binding result [3] was “no binding”. The Kd [4] was 0.12 nM, the koff [4] was 0.000625 s⁻¹ and the kon [4] was 5.18e+06 M⁻¹ s⁻¹.

B5: Humabody VH 1.52 (VHH)
VH: EVQLVESGGGLVQIGGSLRLSCAASGFTFSKYWMIWVRQAPEKGLEWVANINQDGSEKYYVDSVEGRFTISRDNANNSLFLQMNSLRAEDTAVYYCARGGDDYSISHFGMDVSGQGTRVTVSSHHHHHH
notes: human single VH domain
B5 was tested, and the EC50 [1] was 0.48 nM, the EC50 [2] was 0.45 nM and the binding result [3] was “no binding”. The Kd [4] was 3.2 nM, the koff [4] was 0.000963 s⁻¹ and the kon [4] was 300000 M⁻¹ s⁻¹.

B6: Humabody VH 2.1 (VHH)
VH: EVQLVESGGGLVKPGGSLRVSCAASGFTFSDYYMSWFRQAPGKGLEWVSYISGSGDIIDYADSVKGRFTISRDNAKNSLYLQMNNLRAEDTAVYHCAREDSRLTGTTDFDNWGQGTLVTVSSHHHHHH
notes: human single VH domain
With B6 the EC50 [1] was 3.7 nM, the binding result [3] was “no binding” and the Kd [4] was 2.9 nM. It also gave a koff [4] of 0.00388 s⁻¹, a kon [4] of 1.35e+06 M⁻¹ s⁻¹ and a Kd [5] of 6.7 nM. For the same binder, the koff [5] was 0.0052 s⁻¹ and the kon [5] was 770000 M⁻¹ s⁻¹.

B7: Humabody VH 2.9 (VHH)
VH: B6 VH with V20L, S35T, V48I, I57T, D62E, N85S, L103I, T104A, Q114P
notes: human single VH domain
With B7 the EC50 [1] was 1.3 nM, the EC50 [2] was 1.2 nM and the binding result [3] was “no binding”.

B8: Humabody VH 2.14 (VHH)
VH: EVQLVESGGGLVKPGGSLRLSCAASGFTFSDYYMTWFRQAPGKGLEWISYISGSGDTIDYAESVKGRFTISRDNAKNSLYLQMNSLRAEDTAVYYCAREDIRMPGTTDFDHWGQGTLVTVSSHHHHHH
notes: human single VH domain
In the case of B8, the EC50 [1] is reported as 1.2 nM, the EC50 [2] is reported as 1.3 nM and the binding result [3] is reported as “no binding”. It also gave a Kd [4] of 0.96 nM, a koff [4] of 0.00157 s⁻¹ and a kon [4] of 1.63e+06 M⁻¹ s⁻¹.

B9: Humabody VH 2.8 (VHH)
VH: B6 VH with V20L, T28A, Y50H, D56T, I57T, N85S, L103M, T104P
notes: human single VH domain
For B9, the EC50 [1] was 3.1 nM, the EC50 [2] was 1.6 nM and the binding result [3] was “no binding”. It also gave a Kd [4] of 5.3 nM, a koff [4] of 0.00616 s⁻¹ and a kon [4] of 1.17e+06 M⁻¹ s⁻¹.
